Source: patent US20080200654A1 (KIRIN PHARMA, published 2008)
Where a chain is given by its changes, count along the chain named.

B1: 125N26F6AA (antibody, human IgG1, kappa, V domains shown)
VH: QVQLVESGGGVVQPGRSLRLSCAASGFTFSHYGMHWVRQAPGKGLEWVALIWYDGSNKYYADSVKGRFTISRDNSKNTLYLQMNSLRAEDTAVYYCARDPLAAGTSYFDYWGQGTLVTVSS
VL: EIVLTQSPDFQSVTPKEKVTITCRASQSIGSSLHWYQQKPDQSPKLLIKYASQSFSGVPSRFSGSGSGTDFTLTINSLEAEDAAAYYCHQSSSLPFTFGPGTKVDIKR
notes: Human IgG1 kappa antibody purified from hybridoma 125N26F6AA (FERM BP-10109); also called 125N26F6AA antibody
B2: 125M10AA (antibody, human IgG1, kappa, V domains shown)
VH: QLQVQESGPGLVKPSETLSLICTVSGGSIRTSGYYWGWFRQPPGKGLEWIGTSHNSGSTYYNPSLKSRVTISVDTSKNQFSLKLNSVTAADTAVYYCARQGYDFKVNIDVWGQGTTVTVSS
VL: EIVLTQSPATLSLSPGERATLSCRASQSVSSYLAWYQQKPGQAPRLLIYDASNRATGIPARFSGSGSGTDFTLTISSLEPEDFAVYYCQQRSNWPLTFGGGTKVEIKR
notes: Human IgG1 kappa antibody purified from hybridoma 125M10AA (FERM BP-10107); also called 125M10AA antibody
B3: 263A17 (antibody, V domains shown)
VH: EVQLLESGGGLVQPGGSLRLSCAASGFTFSSYAMSWIRQAPGKGLEWVSAISASGGSTYYADSVKGRFTISRDNSKNTLYLQMNSLRAEDTAVYYCAKDRIVGATNYYYGMDVWGQGTTVTVSS
VL: DIQMTQSPPSVSASVGDRVTITCRASQGISSWLAWYQHKPGKAPKLLIYGASSLQSGVPSRFSGSGSGTDFTLTISSLQPEDFATYYCQQANSFPITFGQGTRLEIK
notes: Human IgG1 kappa antibody purified from the hybridoma; also called 263A17 antibody
B4: 125M165DAAA (antibody, V domains shown)
VH: QVQLVESGGGVVQPGRSLRLSCAASGFTFSYYGMHWVRQAPGKGLEWVAVIWYDGSNKYYADSVKGRFTISRDNSKKTLYLQMNSLRAEDTAVYYCARDGHSSGWGDFQHWGQGTLVTVSS
VL: EIVLTQSPATLSLSPGERATLSCRASQSVSSSLAWYQQKPGQAPRLLIYDASNRATGIPARFSGSGSGTDFTLTISSLEPEDFAIYYCQQRSNWPPTFGQGTKVEIK
notes: Human IgG1 kappa antibody purified from the hybridoma (FERM BP-10106); also called 125M165DAAA antibody
B5: 125M96ABA (antibody, V domains shown)
VH: QLQLQESGPGLVKPSETLSLTCTVSGGSISTSSYYWGWIRQPPGKGLEWIGTIYYNGSTYYSPSLKSRVSISVDTSKNQFSLKLSSVTAADTSVYYCARQGYDIKINIDVWGQGTTVTVSS
VL: B4 VL with S32Y, D50V, I85V, P96L, Q100G
notes: Human IgG1 kappa antibody purified from the hybridoma (FERM BP-10108); also called 125M96ABA antibody

The binders below were run against T1, A33 antigen (full-length human A33) (human, UniProt Q99795 22-319) (assay: FCM competition on COLO205 cells; antibody 1 µg/ml, competitor mouse anti-A33 antibody 100 µg/ml).
T1 construct: Class I cell membrane protein of the Ig superfamily; also called GPA33; human A33 antigen
T1 sequence: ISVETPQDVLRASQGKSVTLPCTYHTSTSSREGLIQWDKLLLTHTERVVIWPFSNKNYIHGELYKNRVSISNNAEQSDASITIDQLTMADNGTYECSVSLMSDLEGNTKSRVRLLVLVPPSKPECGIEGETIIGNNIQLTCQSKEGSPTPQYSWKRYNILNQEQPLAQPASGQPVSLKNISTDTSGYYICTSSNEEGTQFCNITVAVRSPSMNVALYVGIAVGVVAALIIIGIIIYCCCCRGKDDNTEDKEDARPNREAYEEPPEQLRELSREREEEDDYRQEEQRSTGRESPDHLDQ
Protocol: Whether or not each type of purified monoclonal antibody obtained in Example 8 recognizes an epitope similar to that of the mouse anti-A33 antibody was examined by a competition test using FCM. The COLO205 cell line was suspended at a concentration of 2×10⁶/ml in a PBS Staining Buffer (SB) containing 0.1% NaN₃ and 2% FCS. The cell suspension (50 μl/well) was dispensed in a 96-well round bottom plate (produced by Becton, Dickinson and Company). The purified mouse anti-A33 antibody prepared in Example 1 was not added or added at a concentration of 100 μg/ml to the wells containing each type of purified monoclonal antibody (1 μg/ml and 50 μl), followed by 30 minutes of incubation on ice. A mouse negative control (containing no purified anti-A33 antibody added thereto) was prepared as follows. A human IgG1 antibody (produced by Sigma) was adjusted at a concentration of 1 μg/ml with SB and then 50 μl of the solution was added, followed by 30 minutes of incubation on ice. The resultant was washed twice with SB and then 50 μl of FITC fluorescence-labeled goat anti-human IgG F(ab′)₂ antibody (produced by IBL) was added, followed by 30 minutes of incubation on ice. The resultant was washed once with SB and then the resultant was suspended in 300 μl of a FACS buffer. The mean fluorescence intensity of each cell line was measured by FACS (FACScan produced by Becton, Dickinson and Company). The inhibition (%) between each type of purified monoclonal antibody and the mouse A33 antibody was calculated by the following formula: […]

Row | Binder | Inhibition (%)
1 | B1 | 98%
2 | B2 | 5%
3 | B3 | 3.7%
4 | B4 | 96%
5 | B5 | 22.8%

Each binder was assayed against T1, A33 antigen (full-length human A33) (assay: FCM on LoVo cells; grade = ng/ml to reach half MFI 25 (+++ 10<=x<100, ++ 100<=x<1000, + 1000<=x<10000)).
Text: (§1) The reactivity of each type of purified monoclonal antibody obtained in Example 8 to A33-antigen-expressing human colorectal cancer cell line COLO205 cells, LoVo cells (ATCC No. CCL-229), LS174T cells (ATCC No. CL-188), and NCI-H508 cells (ATCC No. CCL-253) was examined by FCM. Human colorectal cancer cell line HT-29 cells (ATCC No. HTB-38) expressing no A33 antigen were also examined as negative control cells. Each cell line was suspended at a concentration of 2×10⁶/ml in a PBS Staining Buffer (SB) containing 0.1% NaN₃ and 2% FCS. The cell suspension (50 μl/well) was dispensed in a 96-well round bottom plate (produced by Becton, Dickinson and Company). 50 μl of each type of purified monoclonal antibody (adjusted using SB at a concentration of 2000, 400, 80, or 16 ng/ml) was added, and then incubation was performed on ice for 30 minutes. A negative control was prepared depending on each subclass. Specifically, a human IgG1 antibody (produced by Sigma) was adjusted using SB at a concentration of 2000, 400, 80, or 16 ng/ml. 50 μl of the solution was added, followed by 30 minutes of incubation on ice. The resultant was washed twice with SB and then 50 μl of an FITC fluorescence-labeled goat anti-human IgG F(ab′)₂ antibody (produced by Southern Biotech), followed by 30 minutes of incubation on ice. The resultant was washed once with SB and then the resultant was suspended in 300 μl of a FACS buffer. The mean fluorescence intensity of each cell line was measured by FACS (FACScan produced by Becton, Dickinson and Company).
(§2) For COLO205 cells, the half value of the mean fluorescence intensity was determined to be 90. For LoVo cells, the half value of the mean fluorescence intensity was determined to be 25. […] When an antibody concentration required to reach such value was 10<=x<100 ng/ml, the reactivity was represented by +++, when the same was 100<=x<1000 ng/ml, the reactivity was represented by ++, and when the same was 1000<=x<10000 ng/ml, the reactivity was represented by +. When no binding was observed, the reactivity was represented by −.

Row | Binder | antibody concentration required to reach half value of mean fluorescence intensity
6 | B1 | 10 to 100 ng/mL
7 | B2 | 10 to 100 ng/mL
8 | B3 | 100 to 1000 ng/mL
9 | B4 | 10 to 100 ng/mL
10 | B5 | 10 to 100 ng/mL

What follows are binders tested against T1, A33 antigen (full-length human A33) (assay: FCM on COLO205 cells; grade = ng/ml to reach half MFI 90 (+++ 10<=x<100, ++ 100<=x<1000, + 1000<=x<10000)).
Text: as §1, §2

Row | Binder | antibody concentration required to reach half value of mean fluorescence intensity
11 | B1 | 10 to 100 ng/mL
12 | B2 | 10 to 100 ng/mL
13 | B3 | 100 to 1000 ng/mL
14 | B4 | 10 to 100 ng/mL
15 | B5 | 10 to 100 ng/mL

These binders were tested against T1, A33 antigen (full-length human A33) (assay: FCM on LS174T cells; grade = ng/ml to reach half MFI 125 (+++ 10<=x<100, ++ 100<=x<1000, + 1000<=x<10000)).
Text: as §1, §2

Row | Binder | antibody concentration required to reach half value of mean fluorescence intensity
16 | B1 | 100 to 1000 ng/mL
17 | B2 | 10 to 100 ng/mL
18 | B3 | 100 to 1000 ng/mL
19 | B4 | 100 to 1000 ng/mL
20 | B5 | 100 to 1000 ng/mL

The binders below were run against T1, A33 antigen (full-length human A33) (assay: FCM on NCI-H508 cells; grade = ng/ml to reach half MFI 125 (+++ 10<=x<100, ++ 100<=x<1000, + 1000<=x<10000)).
Text: as §1, §2

Row | Binder | antibody concentration required to reach half value of mean fluorescence intensity
21 | B1 | 100 to 1000 ng/mL
22 | B2 | 10 to 100 ng/mL
23 | B3 | 100 to 1000 ng/mL
24 | B4 | 100 to 1000 ng/mL
25 | B5 | 100 to 1000 ng/mL
